Several values for one entry are separate records, joined by “and”; a condition that tells them apart may be missing. Equal values may be shown once. Where no end group is shown, it is not given here. [ ]: non-standard residue; d: D form. ΔPro = O=C(O)[C@@H]1C=CCN1; Aze = O=C(O)[C@@H]1CCN1
Columns and labels:
Type in all cases: biochemical
[1] = biological target: T1, EGLN1 (Homo sapiens, UniProt Q9GZT9); assay: Standard reaction (I): EGLN enzyme activity with hydroxylatable peptide substrate, 14CO2 release from 2-oxo[1-14C]glutaric acid; conditions: for specificity of peptide for EGLN1, EGLN2 and EGLN3 compared: standard reaction (I) peptides, from Table 1 and FIGS. 3, 4
Text: (§1) Enzyme activity can be measured by monitoring the consumption of one or more reaction substrates, or accumulation of one or more reaction products. For example, enzyme activity in either the standard reaction (I) or the modified reaction (II) can be measured using a modified version of a method described by Kivirikko and Myllyla (1982, Methods Enzymol 82:245-304), which is based on the decarboxylation of 2-oxo[1-^14C]glutaric acid. In this method, radioactive ^14CO2 produced during the reaction is captured on base-impregnated filter papers and the captured radioactivity determined by liquid scintillation counting. In a particular embodiment, enzyme activity in standard reaction (I) was measured as described in Example 2 (infra).
(§2) In DLD19, methionine (M) residues were changed to alanine (A) residues due to potential oxidation of methionine during the assay reaction. Peptides used in the assay may additionally contain N-terminal and/or C-terminal blocking groups, e.g., N-terminal acetyl groups, C-terminal amide groups, etc. Enzyme activity in the presence of substrate peptides is provided supra as percent enzyme activity relative to enzyme activity in the presence of control peptide DTD20.
(§3) In all experiments, percent enzyme activity, e.g., as measured by substrate turnover, was less than 30% to insure all data obtained were in the linear range. Enzyme activity in standard reaction (I) was measured in a reaction volume of 1 mL containing EGLN enzyme preparation (10-400 μL), 0.05 μmole hydroxylatable peptide substrate, 0.1 μmole of 2-oxo[1-^14C]glutaric acid (160,000 dpm), 1 μmole of ascorbic acid, 60 μg of catalase and 50 μmole of HEPES buffer adjusted to pH 7.4 at 25° C. Optionally, 0.04 μmole FeSO4 was also be added to the reaction mix. Reactions were carried out at 37° C. for 20 minutes. In various reactions, ascorbate was replaced by 0.1 to 15 mM potassium ferrocyanide. Results are provided in Table 1 (supra) and FIGS. 3 and 4.

[2] = biological target: EGLN3 (Homo sapiens, UniProt Q9H6Z9); assay: as above
Text: as §1, §2, §3

[3] = biological target: EGLN2 (Homo sapiens, UniProt Q96KS0); assay: as above; conditions: Table 1; enzyme activity relative to control peptide DTD20; 37° C., 20 minutes, pH 7.4
Text: as §1, §2, §3

[4] = biological target: T1, EGLN1; assay: Modified reaction (II): EGLN enzyme activity with non-hydroxylatable proline-analog peptide and reducing agent; conditions: modified reaction (II) peptides, from Tables 3, 4 and FIGS. 3, 4
Text: The peptides shown in Table 3, which retain measurable activity in the present assay, are specifically contemplated for use in assays disclosed herein. These peptides are used in a reaction additionally requiring co-substrate 2-oxoglutarate and a reducing agent, e.g., ascorbate; an EGLN enzyme, and oxygen, as described below. The reaction may also include Fe^2+. The reaction proceeds according to the modified reaction (II), in which 2-oxoglutarate is converted to succinate and carbon dioxide, and the reducing agent is subsequently oxidized, e.g., ascorbate is oxidized to dehydroascorbate. […]
In still other embodiments, enzyme activity within the modified reaction (II) may be measured by disappearance of the reduced form of the reducing agent or appearance of the oxidized form of the agent. […] For example, when ascorbate is used in modified reaction (II), disappearance of ascorbate and/or appearance of dehydroascorbate may be measured, e.g., using HPLC. In particular embodiments, ascorbate may be added to modified reaction (II) in limiting quantity, and ascorbate is regenerated during the reaction with concomitant oxidation of NADH to NAD^+ using a modification of the method described by Diliberto and Allen (1981, J Biol Chem 256:3385-3393). […] HIF-PH activity is measured indirectly by consumption of NADH, which produces a reduction in absorbance at a wavelength of 340 nm. […]

[5] = Table 1, enzyme activity relative to control peptide DTD20, 37° C., 20 minutes, pH 7.4

T1 sequence (Q9GZT9 whole entry): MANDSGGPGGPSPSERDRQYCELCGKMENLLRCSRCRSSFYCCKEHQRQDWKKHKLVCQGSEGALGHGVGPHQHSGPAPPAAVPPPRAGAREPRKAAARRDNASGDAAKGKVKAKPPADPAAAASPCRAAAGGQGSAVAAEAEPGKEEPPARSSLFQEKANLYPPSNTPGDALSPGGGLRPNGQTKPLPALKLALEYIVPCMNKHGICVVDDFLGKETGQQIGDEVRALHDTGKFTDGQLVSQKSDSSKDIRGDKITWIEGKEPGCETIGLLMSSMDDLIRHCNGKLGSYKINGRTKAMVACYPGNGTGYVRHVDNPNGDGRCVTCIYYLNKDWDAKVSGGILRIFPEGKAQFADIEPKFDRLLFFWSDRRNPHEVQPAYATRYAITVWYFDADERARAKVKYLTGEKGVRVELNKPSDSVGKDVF
EGLN3, sequence (Q9H6Z9 whole entry): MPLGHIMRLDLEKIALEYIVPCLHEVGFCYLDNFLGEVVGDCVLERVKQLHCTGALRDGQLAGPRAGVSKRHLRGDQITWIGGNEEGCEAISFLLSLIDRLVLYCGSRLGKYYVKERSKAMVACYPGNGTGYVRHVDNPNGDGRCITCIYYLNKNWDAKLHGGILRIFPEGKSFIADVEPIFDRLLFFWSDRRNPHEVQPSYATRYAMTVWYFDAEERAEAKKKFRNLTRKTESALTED
EGLN2, sequence (Q96KS0 whole entry): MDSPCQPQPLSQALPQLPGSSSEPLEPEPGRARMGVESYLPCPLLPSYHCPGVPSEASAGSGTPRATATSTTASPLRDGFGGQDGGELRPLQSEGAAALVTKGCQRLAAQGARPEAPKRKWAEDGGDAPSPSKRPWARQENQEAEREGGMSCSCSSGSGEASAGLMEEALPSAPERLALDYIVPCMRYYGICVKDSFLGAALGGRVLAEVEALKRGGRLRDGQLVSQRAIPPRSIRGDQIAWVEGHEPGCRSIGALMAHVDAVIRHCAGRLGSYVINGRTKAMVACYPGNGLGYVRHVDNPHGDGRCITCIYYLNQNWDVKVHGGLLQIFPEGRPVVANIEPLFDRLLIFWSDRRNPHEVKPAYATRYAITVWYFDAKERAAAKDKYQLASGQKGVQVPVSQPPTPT

Row | hydroxylation of peptide by EGLN1 [1] | hydroxylation of peptide by EGLN3 [2] | Substance | specificity of peptide for EGLN1, EGLN2 and EGLN3 compared [1] | other results
1 | – | – | DTDLDIEALApYIPADDDFQ (DTDLDIEALAPYIPADDDFQ; not fully specified; printed as DTDLDIEALApYIPADDDFQ) [SEQ ID NO 24] | higher specificity for EGLN3 than for EGLN1 and EGLN2 | –
2 | readily hydroxylated | readily hydroxylated | DTDLDWEMVSpYIPADDDFQ (DTDLDWEMVSPYIPADDDFQ; not fully specified (residue 11); printed as DTDLDWEMVSpYIPADDDFQ) [SEQ ID NO 90] | – | –
3 | – | – | 45 (DTDLDTEALAPYIPADDDFQ) [compound 45] | – | Activity (%) EGLN1 [1, 5]: 25.67% and 23.36%; Activity (%) EGLN3 [2, 5]: 64.55% and 60.23%; Activity (%) EGLN2 [3]: 20.49% and 18.04%
4 | – | – | DTDLDFEALApYIPADDDFQ (DTDLDFEALAPYIPADDDFQ; not fully specified; printed as DTDLDFEALApYIPADDDFQ) [SEQ ID NO 19] | higher specificity for EGLN3 than for EGLN1 and EGLN2 | –
5 | – | – | DTDLDLEARApYIPADDDFQ (DTDLDLEARAPYIPADDDFQ; not fully specified; printed as DTDLDLEARApYIPADDDFQ) [SEQ ID NO 15] | higher specificity for EGLN1 and EGLN2 than for EGLN3 | –
6 | readily hydroxylated | readily hydroxylated | DTDLDWEMVApYIPADDDFQ (DTDLDWEMVAPYIPADDDFQ; not fully specified (residue 11); printed as DTDLDWEMVApYIPADDDFQ) [SEQ ID NO 92] | – | –
7 | readily hydroxylated | readily hydroxylated | DTDLDYEMIApYIPADDDFQ (DTDLDYEMIAPYIPADDDFQ; not fully specified (residue 11); printed as DTDLDYEMIApYIPADDDFQ) [SEQ ID NO 89] | – | –
8 | – | – | DTDLDMEALApYIPADDDFQ (DTDLDMEALAPYIPADDDFQ; not fully specified (residue 11); printed as DTDLDMEALApYIPADDDFQ) [SEQ ID NO 13] | higher specificity for EGLN3 than for EGLN1 and EGLN2 | –
9 | readily hydroxylated | readily hydroxylated | DTDLDWEAVSpYIPADDDFQ (DTDLDWEAVSPYIPADDDFQ; not fully specified (residue 11); printed as DTDLDWEAVSpYIPADDDFQ) [SEQ ID NO 91] | – | –
10 | – | – | DTDLDLEALA8YIPADDDFQ (DTDLDLEALA[Aze]YIPADDDFQ) [SEQ ID NO 63, 8 = L-azetidine-2-carboxylate in place of the hydroxylated proline] | – | specificity of proline-analog peptide for EGLN1, EGLN2 and EGLN3 compared [4]: higher specificity for EGLN3 than for EGLN1 and EGLN2
11 | – | – | DTDLDLEALA4YIPADDDFQ (DTDLDLEALA[ΔPro]YIPADDDFQ) [SEQ ID NO 62, 4 = 3,4-dehydroproline in place of the hydroxylated proline] | – | specificity of proline-analog peptide for EGLN1, EGLN2 and EGLN3 compared [4]: higher specificity for EGLN1 and EGLN2 than for EGLN3

— patent publication US20080113383A1, “Hif Prolyl Hydroxylase Activity Assay” (Fibro Gen, Inc., priority 2004, published 2008)
